US20120027763A1 (TRANSGENE BIOTEK, published 2012)

Target: T1, TNFRSF17-epag
T1 construct: also called TNFRS17-epag
T1 peptide: KSRTGDEIILPRGLC
Assay: screening of ascites mAbs by specific Ag binding activity, after immunization with SEQ ID NO:2

B1: TBL-CLN1 (antibody, V domains shown)
VH: EVKLVESGGGLVKPGGSLKLSCAASGITFSTYAMSWVRQTPEKRLEWVASITTGGNVYFPDSVKGRFTISRDNARNILYLQMSSLRSEDTAMYYCAGGITATRGTFAYWGQGTTLTVSS
VL: DVLMTQTPLSLPVSLGDQASISCRSSQSIGHSNGITYLEWYLQKPGQSPKLLIYKVSNRFSGVPDRFSGSGSGTDFTLKISRVEAEDLGVYYCFEGSHVPLTFGAGTKLELKR
notes: also called TBL-CLNI
B1: binds.
